Tested on: MS2 coat protein
Assay: apparent KD of MS2 coat protein; designed switch direction (-1 OFF switch, 1 ON switch): 1; higher = weaker reporter binding
How it was run: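 The buffer was Tris-HCl pH 7.5 with KCl, MgCl2, BSA, DTT, tRNA and Tween-20. In it, SNAP-549-labelled MS2 coat protein was titrated in doubling steps from 0.7 or 1.5 nM to 3 µM over chip-bound RNA switches transcribed by stalled E. coli RNA polymerase on Illumina chips. Apparent KD is the per-design median over clusters of curve fits to normalised fluorescence.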

[1] = Eterna round: R95, input ligand: FMN 200 uM
[2] = Eterna round: R95, input ligand: microRNA oligo, concentration not stated
[3] = Eterna round: R95, input ligand: none
[4] = input ligand: microRNA oligo, concentration not stated

Row | Sequence | apparent KD of MS2 coat protein [1] [nM] | apparent KD of MS2 coat protein [2] [nM] | apparent KD of MS2 coat protein [3] [nM] | apparent KD of MS2 coat protein (input ligand: FMN 200 uM) [nM] | apparent KD of MS2 coat protein [4] [nM] | apparent KD of MS2 coat protein (input ligand: none) [nM]
1 | AAACUACAUGAGGAUCACCCAUGUGAAAACCGCAUAGGAUAUCCGCAGCAAUGAGCUGACGGAGAAGGGUGACCGG [Riater] (puzzle: Same State 1) | 175 | 103 | 276 | – | – | –
2 | AAAGAAAACGCAGGAUAUCCCGGAAUGGAAACGGGAGAAGGGUGACCGGUACAUGAGGAUCACCCAUGUAGAGCACAGGCUCAA [Sousdi] (Eterna round: R96, puzzle: Same State NG 1) | – | – | – | 3380 | 39.4 | 922
3 | AAAGGACAUGAGGAUCACCCAUGUAGAAAAUACACAGGAUAUCGUCAUAUCGAAAUAUAAUGAGAAGGGUGCAAAA [Zaanininra] (puzzle: Same State 1) | 73.5 | 179 | 256 | – | – | –
4 | AAAGUACAUGAGGAUCACCCAUGUCCCAAUGAAUAAGGAUAUACGAAAAUAAAAUAAAAUGUAGAAGGUAUAAUAG [Same State 1 #1] (puzzle: Same State 1) | – | 30.5 | – | – | – | –
5 | AAAUAAAUGACUCAGGAUAUAUCAUAGAAUACAUGAGGAUCACCCAUGUUUUAAUAACAUGUUUGGUAGAAGGGAGUCAAUAAAU [LROPPY Same State 2 - v05_deltaG=1.86] (Eterna round: R96, puzzle: Same State 2) | – | – | – | 25.2 | 78.1 | 105
6 | AACAAUCUAUCUGAGGAUAUCAUGAAAUAAACAUGAGGAUCACCCAUGUGCAGGAAAACUGCAUAUGAGAAGGCUGAUAGAUUGA [salish99_ss2_r3_051] (puzzle: Same State 2) | 78 | 574 | 5350 | – | – | –
7 | AACAAUCUAUCUGAGGAUAUCAUGAAAUAAACAUGAGGAUCACCCAUGUGUAGGAAAACUGCAUAUGAGAAGGCAGAUAGAUUGA [salish99_ss2_r3_036] (Eterna round: R96, puzzle: Same State 2) | – | – | – | – | 465 | –
8 | AACAAUCUAUCUGAGGAUAUCAUGAAAUAAACAUGAGGAUCACCCAUGUGUAGGAAAACUGCAUAUGAGAAGGCAGAUAGAUUGA [salish99_ss2_r3_036] (puzzle: Same State 2) | 31.9 | 299 | 1330 | – | – | –
9 | AACAAUCUAUCUGAGGAUAUCAUGUAAUAAACAUGAGGAUCACCCAUGUGCAGGAAAACUGCAUAUGAGAAGGCAGAUAGAUUGA [salish99_ss2_r3_030] (puzzle: Same State 2) | 182 | 134 | 180 | – | – | –
10 | AACAAUCUAUCUGAGGAUAUCAUGUCAAAGACAUGAGGAUCACCCAUGUACCAGGAAACUGGUUAUGAGAAGGCAGAUAGAUUGA [SS2: 1115] (Eterna round: R96, puzzle: Same State 2) | – | – | – | 48.2 | 596 | 932
11 | AACAAUCUAUCUUAGGAUAUCAUGAAAUAAACAUGAGGAUCACCCAUGUGCAGGAAAACUGCAUAUGAGAAGGCAGAUAGAUUGA [salish99_ss2_r3_026] (puzzle: Same State 2) | 593 | 36.2 | 42.2 | – | – | –
12 | AACAUGUGGUGUCACAUGAGGAUCACCCAUGUGGUAAAAGCUGAGGAUAUAAAGAGAAACAUGAAUUAGAAGGUAGGAUCACAA [AK SSNG3-V2-19] (Eterna round: R96, puzzle: Same State NG 3) | – | – | – | 177 | 138 | 127
13 | AACUAUCUAUCUCAGGAUAUCAUGUCAAAGACAUGAGGAUCACCCAUGUACCAGGAAACUGGUUAUGAGAAGGGAGAUAGAUAGG [Mat - Same State 2 - Mod - D42] (puzzle: Same State 2) | 193 | 64.8 | 68.3 | – | – | –
14 | AAGCUCGUGUGAGGAUAUGCCGCCGUUUCGGCUGCAGAAGGUGCUACGUUACAUGAGGAUCACCCAUGUCUCUGUUGUUUCGUU [salish99_SSNG1_r04_951] (Eterna round: R96, puzzle: Same State NG 1) | – | – | – | 18.7 | 15.9 | 20.8
15 | AAGUAACAUGAGGAUCACCCAUGUGAGGUGAGCGUAGGAUAUCGAGAAGGAAGGGUGGAGCGAGAAGGACGAAGGA [JR_SS1_Sub0102] (puzzle: Same State 1) | 349 | 192 | 501 | – | – | –
16 | AAGUAACAUGAGGAUCACCCAUGUGAGGUGAGCGUAGGAUAUCGAGGAGGAAGGGUGGAGCGAGAAGGACGAGAAG [JR_SS1_Sub097] (puzzle: Same State 1) | 114 | 262 | 402 | – | – | –

Row | Sequence | apparent KD of MS2 coat protein [1] [nM] | apparent KD of MS2 coat protein [2] [nM] | apparent KD of MS2 coat protein [3] [nM] | apparent KD of MS2 coat protein (input ligand: FMN 200 uM) [nM] | apparent KD of MS2 coat protein [4] [nM] | apparent KD of MS2 coat protein (input ligand: none) [nM]
17 | AAGUUAAGCUUUUUGUUCUGCCUAUUCUGACAUGAGGAUCACCCAUGUGGUCGAACGACUACGUGUGUAGUUGAGAU [JR_SHM208A_Sub030] (Eterna round: R96, puzzle: Sensor for hsa-mir-208a) | – | – | – | 493 | 341 | 550
18 | AAGUUAAGCUUUUUGUUCUGCCUAUUCUGACAUGAGGAUCACCCAUGUGGUCGAACGACUACGUGUGUAGUUGAGAU [JR_SHM208A_Sub030] (puzzle: Sensor for hsa-mir-208a) | 174 | 252 | 278 | – | – | –
19 | AAUUAAUUAAUACAUGAGGAUCACCCAUGUAAUUAUUAGAUCAAGGAUAUCAGCUCGAAUAGAGCUGAGAAGGUGAUCACAUGU [SSNG3/18-A1] (Eterna round: R96, puzzle: Same State NG 3) | – | – | – | – | 259 | –
20 | AAUUAAUUAAUUAAUAUACAUGAGGAUCACCCAUGUAAGAUCAAGGAUAUCAGCUCGAUUAGAGCUGAGAAGGUGAUCACAUGU [SSNG3/16-A2] (Eterna round: R96, puzzle: Same State NG 3) | – | – | – | – | 207 | –
21 | ACAAAGAACACAGGAUAUCGGAAAGGAAGUGUACGAGAAGGGUGGUCAACAGUACAUGAGGAUCACCCAUGUGGUGGAUGGCAA [PowerStrip SSNG 1.12] (Eterna round: R96, puzzle: Same State NG 1) | – | – | – | 177 | 2.42 | 1440
22 | ACAAGACAUGAGGAUCACCCAUGUAUAAAUUACACAGGAUAUCGGCGGACCGCACCCGCACGAGAAGGGUGACUUC [Eszaleer] (puzzle: Same State 1) | 472 | 34.1 | 24.7 | – | – | –
23 | ACAAGCUUUUCUGUAUUGAAAGGUGGGAUACAUGAGGAUCACCCAUGUUUUUUUGAAAAUAAUAUUCCUCGUCUUAU [JR_SHM208A_Sub091] (puzzle: Sensor for hsa-mir-208a) | 51.5 | 33.1 | 47.1 | – | – | –
24 | ACACUCCGUGGAGGAUAUGGGCCUGCCCGGGAUACCGGGCCUAACACAUGAGGAUCACCCAUGUCCCAGAAGGCCGCUGGAGCC [Enenala] (Eterna round: R96, puzzle: Same State NG 2) | – | – | – | 26.2 | 55.7 | 120
25 | ACAUGAGAACGAGGAUAUUUUGUACCUACAUGUGACAUGAGGAUCACCCAUGUGGUAAGUAUGAGAAAGAAGGCGUAGAUAUGU [Equivalence 14 - Jieux - Same State NG 2] (Eterna round: R96, puzzle: Same State NG 2) | – | – | – | 21.9 | 30.6 | 29
26 | ACAUGAGACCAAGGAUAUUUUGUACCUACAUGUGACAUGAGGAUCACCCAUGUGGUAAGUAUGAGAAAGAAGGUGGAGAUAUGU [Equivalence 22 - Jieux - Same State NG 2] (Eterna round: R96, puzzle: Same State NG 2) | – | – | – | 22.8 | 22.5 | 37
27 | ACAUGAGACGGAGGAUAUCUUGUACCUACAUGUGACAUGAGGAUCACCCAUGUGGUAAGUAUGAUAGAGAAGGCCGAGAUAUGU [Equivalance 57 - Jieux - Same State NG 2] (Eterna round: R96, puzzle: Same State NG 2) | – | – | – | 16.1 | 15 | 25.4
28 | ACAUGAGACUGAGGAUAUGUUGUACCUACAUGUGACAUGAGGAUCACCCAUGUGGUAAGUAUGAUACAGAAGGCAGAGAUAUGU [Equivalance 63 - Jieux - Same State NG 2] (Eterna round: R96, puzzle: Same State NG 2) | – | – | – | 14.2 | 14.5 | 22.1
29 | ACAUGAGAUCUAGGAUAUAUUGUACCUACAUGUGACAUGAGGAUCACCCAUGUGGUAAGUAUGACAUAGAAGGAGAAGAUAUGU [Equivalance 95 - Jieux - Same State NG 2] (Eterna round: R96, puzzle: Same State NG 2) | – | – | – | – | 53.9 | –
30 | ACAUGAGAUGGAGGAUAUGUUGUACCUACAUGUGACAUGAGGAUCACCCAUGUGGUAAGUAUGAUACAGAAGGCCAAGAUAUGU [Equivalance 59 - Jieux - Same State NG 2] (Eterna round: R96, puzzle: Same State NG 2) | – | – | – | 16.5 | 15.8 | 27.2
31 | ACAUGAGAUUGAGGAUAUAUUGUACCUACAUGUGACAUGAGGAUCACCCAUGUGGUAAGUAUGACAUAGAAGGCAGAGAUAUGU [Equivalance 84 - Jieux - Same State NG 2] (Eterna round: R96, puzzle: Same State NG 2) | – | – | – | 67.7 | 107 | 75.3

Source: the supplement of paper PMC9170038
